Source: patent US20260167699A1 (Chugai, published 2026)

B1: GpH7-A5/GpH7-B3 variant P331_14T/GpL16-k0 (antibody, human IgG1, kappa)
heavy 1: not shown
heavy 2: not shown
light: DIVMTQSPLSLPVTPGEPASISCQASESLVHSNRNTYLHWYLQKPGQSPQLLIYKVSNRFSGVPDRFSGSGSGTDFTLKISRVEAEDVGVYYCSQNTHVPPTFGQGTKVEIERTVAAPSVFIFPPSDEQLKSGTASVVCLLNNFYPREAKVQWKVDNALQSGNSQESVTEQDSKDSTYSLSSTLTLSKADYEKHKVYACEVTHQGLSSPVTKSFNRGEC
notes: copies: 1 + 1 + 2
B2: GpH7-A5/GpH7-B3 variant P331_15Y/GpL16-k0 (antibody, human IgG1, kappa)
heavy 1: not shown
heavy 2: not shown
light: DIVMTQSPLSLPVTPGEPASISCQASESLVHSNRNTYLHWYLQKPGQSPQLLIYKVSNRFSGVPDRFSGSGSGTDFTLKISRVEAEDVGVYYCSQNTHVPPTFGQGTKVEIERTVAAPSVFIFPPSDEQLKSGTASVVCLLNNFYPREAKVQWKVDNALQSGNSQESVTEQDSKDSTYSLSSTLTLSKADYEKHKVYACEVTHQGLSSPVTKSFNRGEC
notes: copies: 1 + 1 + 2
B3: GpH7-A5/GpH7-B3 variant P331_16H/GpL16-k0 (antibody, human IgG1, kappa)
heavy 1: not shown
heavy 2: not shown
light: DIVMTQSPLSLPVTPGEPASISCQASESLVHSNRNTYLHWYLQKPGQSPQLLIYKVSNRFSGVPDRFSGSGSGTDFTLKISRVEAEDVGVYYCSQNTHVPPTFGQGTKVEIERTVAAPSVFIFPPSDEQLKSGTASVVCLLNNFYPREAKVQWKVDNALQSGNSQESVTEQDSKDSTYSLSSTLTLSKADYEKHKVYACEVTHQGLSSPVTKSFNRGEC
notes: copies: 1 + 1 + 2
B4: GpH7-A5/GpH7-B3 variant P331_18N/GpL16-k0 (antibody, human IgG1, kappa)
heavy 1: not shown
heavy 2: not shown
light: DIVMTQSPLSLPVTPGEPASISCQASESLVHSNRNTYLHWYLQKPGQSPQLLIYKVSNRFSGVPDRFSGSGSGTDFTLKISRVEAEDVGVYYCSQNTHVPPTFGQGTKVEIERTVAAPSVFIFPPSDEQLKSGTASVVCLLNNFYPREAKVQWKVDNALQSGNSQESVTEQDSKDSTYSLSSTLTLSKADYEKHKVYACEVTHQGLSSPVTKSFNRGEC
notes: copies: 1 + 1 + 2
B5: GpH7-A5/GpH7-B3 variant P331_19Q/GpL16-k0 (antibody, human IgG1, kappa)
heavy 1: not shown
heavy 2: not shown
light: DIVMTQSPLSLPVTPGEPASISCQASESLVHSNRNTYLHWYLQKPGQSPQLLIYKVSNRFSGVPDRFSGSGSGTDFTLKISRVEAEDVGVYYCSQNTHVPPTFGQGTKVEIERTVAAPSVFIFPPSDEQLKSGTASVVCLLNNFYPREAKVQWKVDNALQSGNSQESVTEQDSKDSTYSLSSTLTLSKADYEKHKVYACEVTHQGLSSPVTKSFNRGEC
notes: copies: 1 + 1 + 2
B6: GpH7-A5/GpH7-B3 variant P331_20W/GpL16-k0 (antibody, human IgG1, kappa)
heavy 1: not shown
heavy 2: not shown
light: DIVMTQSPLSLPVTPGEPASISCQASESLVHSNRNTYLHWYLQKPGQSPQLLIYKVSNRFSGVPDRFSGSGSGTDFTLKISRVEAEDVGVYYCSQNTHVPPTFGQGTKVEIERTVAAPSVFIFPPSDEQLKSGTASVVCLLNNFYPREAKVQWKVDNALQSGNSQESVTEQDSKDSTYSLSSTLTLSKADYEKHKVYACEVTHQGLSSPVTKSFNRGEC
notes: copies: 1 + 1 + 2
B7: GpH7-A5/GpH7-B3 variant Q295_01G/GpL16-k0 (antibody, human IgG1, kappa)
heavy 1: not shown
heavy 2: not shown
light: DIVMTQSPLSLPVTPGEPASISCQASESLVHSNRNTYLHWYLQKPGQSPQLLIYKVSNRFSGVPDRFSGSGSGTDFTLKISRVEAEDVGVYYCSQNTHVPPTFGQGTKVEIERTVAAPSVFIFPPSDEQLKSGTASVVCLLNNFYPREAKVQWKVDNALQSGNSQESVTEQDSKDSTYSLSSTLTLSKADYEKHKVYACEVTHQGLSSPVTKSFNRGEC
notes: copies: 1 + 1 + 2
B8: GpH7-A5/GpH7-B3 variant Q295_02A/GpL16-k0 (antibody, human IgG1, kappa)
heavy 1: not shown
heavy 2: not shown
light: DIVMTQSPLSLPVTPGEPASISCQASESLVHSNRNTYLHWYLQKPGQSPQLLIYKVSNRFSGVPDRFSGSGSGTDFTLKISRVEAEDVGVYYCSQNTHVPPTFGQGTKVEIERTVAAPSVFIFPPSDEQLKSGTASVVCLLNNFYPREAKVQWKVDNALQSGNSQESVTEQDSKDSTYSLSSTLTLSKADYEKHKVYACEVTHQGLSSPVTKSFNRGEC
notes: copies: 1 + 1 + 2
B9: GpH7-A5/GpH7-B3 variant Q295_03V/GpL16-k0 (antibody, human IgG1, kappa)
heavy 1: not shown
heavy 2: not shown
light: DIVMTQSPLSLPVTPGEPASISCQASESLVHSNRNTYLHWYLQKPGQSPQLLIYKVSNRFSGVPDRFSGSGSGTDFTLKISRVEAEDVGVYYCSQNTHVPPTFGQGTKVEIERTVAAPSVFIFPPSDEQLKSGTASVVCLLNNFYPREAKVQWKVDNALQSGNSQESVTEQDSKDSTYSLSSTLTLSKADYEKHKVYACEVTHQGLSSPVTKSFNRGEC
notes: copies: 1 + 1 + 2
B10: GpH7-A5/GpH7-B3 variant Q295_04F/GpL16-k0 (antibody, human IgG1, kappa)
heavy 1: not shown
heavy 2: not shown
light: DIVMTQSPLSLPVTPGEPASISCQASESLVHSNRNTYLHWYLQKPGQSPQLLIYKVSNRFSGVPDRFSGSGSGTDFTLKISRVEAEDVGVYYCSQNTHVPPTFGQGTKVEIERTVAAPSVFIFPPSDEQLKSGTASVVCLLNNFYPREAKVQWKVDNALQSGNSQESVTEQDSKDSTYSLSSTLTLSKADYEKHKVYACEVTHQGLSSPVTKSFNRGEC
notes: copies: 1 + 1 + 2
B11: GpH7-A5/GpH7-B3 variant Q295_05P/GpL16-k0 (antibody, human IgG1, kappa)
heavy 1: not shown
heavy 2: not shown
light: DIVMTQSPLSLPVTPGEPASISCQASESLVHSNRNTYLHWYLQKPGQSPQLLIYKVSNRFSGVPDRFSGSGSGTDFTLKISRVEAEDVGVYYCSQNTHVPPTFGQGTKVEIERTVAAPSVFIFPPSDEQLKSGTASVVCLLNNFYPREAKVQWKVDNALQSGNSQESVTEQDSKDSTYSLSSTLTLSKADYEKHKVYACEVTHQGLSSPVTKSFNRGEC
notes: copies: 1 + 1 + 2
B12: GpH7-A5/GpH7-B3 variant Q295_06M/GpL16-k0 (antibody, human IgG1, kappa)
heavy 1: not shown
heavy 2: not shown
light: DIVMTQSPLSLPVTPGEPASISCQASESLVHSNRNTYLHWYLQKPGQSPQLLIYKVSNRFSGVPDRFSGSGSGTDFTLKISRVEAEDVGVYYCSQNTHVPPTFGQGTKVEIERTVAAPSVFIFPPSDEQLKSGTASVVCLLNNFYPREAKVQWKVDNALQSGNSQESVTEQDSKDSTYSLSSTLTLSKADYEKHKVYACEVTHQGLSSPVTKSFNRGEC
notes: copies: 1 + 1 + 2

The binders below were run against T1, FcγRIIIa (human, UniProt P08637 17-208) (assay: SPR (Biacore);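 also: antibody variants captured on an SPR sensor chip, with FcγRIIIa passed over as analyte in HBS-EP+ buffer at 25 °C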).
T1 construct: extracellular domain; also called 3a; FcγRIIIa extracellular domain
T1 sequence (P08637 other isoform, or with tags, fused parts or gaps): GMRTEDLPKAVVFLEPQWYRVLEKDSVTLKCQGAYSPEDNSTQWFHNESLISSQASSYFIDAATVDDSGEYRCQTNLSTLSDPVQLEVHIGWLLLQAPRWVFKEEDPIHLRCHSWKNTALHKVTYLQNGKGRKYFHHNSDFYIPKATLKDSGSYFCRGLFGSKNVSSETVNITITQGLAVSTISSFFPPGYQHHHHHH

Going from B1 to B2, the “He/Con 3a” value rises from 67.8 % of GpH7-A5/GpH7-B3/GpL16-k0 to 74.9 % of GpH7-A5/GpH7-B3/GpL16-k0.

First: B3
Second: B4
The “He/Con 3a” value of the first is higher: 73.4 % of GpH7-A5/GpH7-B3/GpL16-k0 for the first, 67.1 % of GpH7-A5/GpH7-B3/GpL16-k0 for the second.

Compared with B5, B6 is lower in “He/Con 3a” value: 73.9 % of GpH7-A5/GpH7-B3/GpL16-k0 for the first, 71.9 % of GpH7-A5/GpH7-B3/GpL16-k0 for the second.

Compared with B7, B8 is higher in “He/Con 3a” value: 76.6 % of GpH7-A5/GpH7-B3/GpL16-k0 for the first, 111 % of GpH7-A5/GpH7-B3/GpL16-k0 for the second.

First: B9
Second: B10
The “He/Con 3a” value of the first is higher: 86.2 % of GpH7-A5/GpH7-B3/GpL16-k0 for the first, 75.1 % of GpH7-A5/GpH7-B3/GpL16-k0 for the second.

First: B11
Second: B12
The “He/Con 3a” value of the first is lower: 74.4 % of GpH7-A5/GpH7-B3/GpL16-k0 for the first, 100 % of GpH7-A5/GpH7-B3/GpL16-k0 for the second.
